In series [1] the target is T1, 3-hydroxy-3-methylglutaryl coenzyme A reductase (DaHMGR) (Delftia acidovorans, UniProt A9BQX8).
T1 sequence (A9BQX8 1-429): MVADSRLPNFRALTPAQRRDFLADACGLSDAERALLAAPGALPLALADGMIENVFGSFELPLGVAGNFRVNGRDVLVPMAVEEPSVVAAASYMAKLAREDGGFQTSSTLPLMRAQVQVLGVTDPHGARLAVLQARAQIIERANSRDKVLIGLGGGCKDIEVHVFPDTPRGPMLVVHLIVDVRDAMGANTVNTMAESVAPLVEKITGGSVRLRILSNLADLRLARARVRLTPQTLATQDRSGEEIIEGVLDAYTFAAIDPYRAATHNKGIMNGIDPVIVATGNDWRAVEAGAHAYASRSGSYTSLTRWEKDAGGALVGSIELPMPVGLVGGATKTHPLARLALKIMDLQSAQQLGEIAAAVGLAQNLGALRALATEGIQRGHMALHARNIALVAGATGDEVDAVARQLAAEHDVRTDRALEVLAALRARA
The experiment in a line: X-ray crystal structure. Format: binding.

Substrate in the series “purified protein”: CC(C)(COP(=O)(O)OP(=O)(O)OC[C@H]1O[C@@H](n2cnc3c(N)ncnc32)[C@H](O)[C@@H]1OP(=O)(O)O)[C@@H](O)C(=O)NCCC(=O)NCCSC(=O)C[C@@](C)(O)CC(=O)O
The series is described as follows: purified protein. The settings on record: NADH.

As to `C[C@@](O)(CCO)CC(=O)O` [mevalonate], in series [1], the “X-ray crystal structure (1.49 Å)” value was “in the mevalonate-bound DaHMGR structure, positive difference maps showed density in the active site, representing mevalonate binding”.

B1: 3-hydroxy-3-methylglutaryl coenzyme A reductase (DaHMGR) (Delftia acidovorans SPH-1) (protein)
chain: MVADSRLPNFRALTPAQRRDFLADACGLSDAERALLAAPGALPLALADGMIENVFGSFELPLGVAGNFRVNGRDVLVPMAVEEPSVVAAASYMAKLAREDGGFQTSSTLPLMRAQVQVLGVTDPHGARLAVLQARAQIIERANSRDKVLIGLGGGCKDIEVHVFPDTPRGPMLVVHLIVDVRDAMGANTVNTMAESVAPLVEKITGGSVRLRILSNLADLRLARARVRLTPQTLATQDRSGEEIIEGVLDAYTFAAIDPYRAATHNKGIMNGIDPVIVATGNDWRAVEAGAHAYASRSGSYTSLTRWEKDAGGALVGSIELPMPVGLVGGATKTHPLARLALKIMDLQSAQQLGEIAAAVGLAQNLGALRALATEGIQRGHMALHARNIALVAGATGDEVDAVARQLAAEHDVRTDRALEVLAALRARA
As for B1, in the series “purified protein”, the Michaelis-Menten constant (Km) came to 7.34 ± 0.71 µM, the turnover number (kcat) is 22.3 s⁻¹ and the kcat/Km is 3.04e+06 M⁻¹ s⁻¹.

As a reminder, the Km is the substrate concentration at which the rate is half of its maximum. A word on the kcat: it is the maximal rate divided by the concentration of active sites. Usually kcat/Km stands for the turnover number divided by the Michaelis constant.
